Data: patent publication US20050282740A1 (BETH ISRAEL DEACONESS MEDICAL CENTER, published 2005)
Where no end group is shown, it is not given here. Fluorescein = N-terminal fluorescein label

Molecular target: T1, GST (UniProt P08515 1-218 = GST)
T1 construct: Control protein; also called control GST
Experiment: fluorescence anisotropy

T1 sequence (P08515 whole entry): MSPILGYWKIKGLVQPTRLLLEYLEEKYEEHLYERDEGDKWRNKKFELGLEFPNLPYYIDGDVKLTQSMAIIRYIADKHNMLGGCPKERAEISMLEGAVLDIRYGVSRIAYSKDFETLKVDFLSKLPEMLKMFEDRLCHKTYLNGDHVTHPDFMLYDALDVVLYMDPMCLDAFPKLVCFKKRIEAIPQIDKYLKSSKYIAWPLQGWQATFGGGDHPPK

binding result: no binding
B1: EQPLTPVTDL (peptide)
peptide: Fluorescein-EQPLTPVTDL
notes: also called nonphosphorylated Cdc25 Peptide
